{
  "source": "patent US10596234B2",
  "about": "“Compositions and methods to inhibit viral replication” (priority 2016, dated 2020)",
  "molecules": {"B1": {"name": "RIG-I-QQ (protein)", "chain": "MTTEQRRSLQAFQDYIRKTLDPTYILSYMAPWFREEEVQYIQAEKNNKGPMEAATLFLKFLLELQEEGWFRGFLDALDHAGYSGLYEAIESWDFKKIEKLEEYRLLLKRLQPEFKTRIIPTDIISDLSECLINQECEEILQICSTKGMMAGAEKLVECLLRSDKENWPKTLKLALEKERNKFSELWIVEKGIKDVETEDLEDKMETSDIQIFYQEDPECQNLSENSCPPSEVSDTNLYSPFKPRNYQLELALPAMKGKNTIICAPTGCGKTFVSLLICEHHLKKFPQGQKGKVVFFANQIPVYEQQKSVFSKYFERHGYRVTGISGATAENVPVEQIVENNDIIILTPQILVNNLKKGTIPSLSIFTLMIFDECHNTSKQHPYNMIMFNYLDQKLGGSSGPLPQVIGLTASVGVGDAKNTDEALDYICKLCASLDASVIATVKHNLEELEQVVYKPQKFFRKVESRISDKFKYIIAQLMRDTESLAKRICKDLEQLSQIQNREFGTQKYEQWIVTVQKACMVFQMPDKDEESRICKALFLYTSHLRKYQDALIISEHARMKDALDYLKDFFSNVRAAGFEEIEQDLTQRFEEKLQELESVSRDPSNENPKLEDLCFILQEEYHLNPETITILFVKTRALVDALKNWIEGNPKLSFLKPGILTGRGKTNQNTGMTLPAQKCILDAFKASGDHNILIATSVADEGIDIAQCNLVILYEYVGNVIKMIQTRGRGRARGSKCFLLTSNAGVIEKEQINMYKEKMMNDSILRLQTWDEAVFREKILHIQTHEKFIRDSQEKPKPVPDKENKKLLCRKCKALACYTADVRVIEECHYTVLGDAFKECFVSRPHPKPKQFSSFEKRAKIFCARQNCSHDWGIHVKYKTFEIPVIKIESFVVEDIATGVQTLYSKWKDFHFEKIPFDPAEMSK"}},
  "key": {"cGAS [1]": {"biological_target": "T1, cGAS (Mus musculus, UniProt Q8C6L5)", "T1 construct": "Purified mcGAS(141-507) was deamidated by purified FLAG-UL37 in vitro; made in house; host or cells: E. coli BL21 (DE3)", "T1 sequence (Q8C6L5 141-507)": "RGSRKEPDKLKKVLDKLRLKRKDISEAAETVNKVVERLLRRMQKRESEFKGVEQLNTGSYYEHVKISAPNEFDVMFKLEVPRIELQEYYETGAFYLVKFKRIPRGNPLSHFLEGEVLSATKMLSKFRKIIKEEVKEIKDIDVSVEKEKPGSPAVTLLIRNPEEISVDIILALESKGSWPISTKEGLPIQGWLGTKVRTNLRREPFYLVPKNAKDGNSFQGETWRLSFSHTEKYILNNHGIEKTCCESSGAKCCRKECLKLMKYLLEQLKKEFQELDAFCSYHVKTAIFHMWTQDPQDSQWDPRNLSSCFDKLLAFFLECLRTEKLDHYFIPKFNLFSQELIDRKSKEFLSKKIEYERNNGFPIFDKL", "assay": "In vitro cGAMP activity assay", "assay_type": "biochemical", "conditions": "in vitro cGAMP reaction", "method": "1 μM of MBP-cGAS or mutant proteins was mixed with 100 μM ATP and 100 μM GTP and 10 μCi [α-P32]-ATP in reaction buffer (20 mM Tris-Cl [pH 7.5], 150 mM NaCl, 5 mM MgCl2, 1 mM dithiothreitol [DTT]). After 2 h of incubation at 37° C., 2 μl of reaction solution was spotted onto PEI-Cellulose thin layer chromatography plate (Sigma). Reaction products were resolved with running buffer (1 M (NH4)2SO4, 1.5 M KH2PO4, pH 3.8). The TLC plates were dried and scanned with Phosphoimager (Fuji)."}, "PRDIII promoter": {"system": "PRDIII promoter", "assay": "Dual-luciferase reporter assay (PRDIII, SeV infection)", "assay_type": "cell-based, human", "conditions": "293T cells, SeV 100 HAU/ml", "method": "HEK293T cells, seeded in 24-well plates (˜50% cell density), were transfected with IFN-β, PRDIII (ISRE) or NF-κB reporter plasmid cocktail (50 ng of luciferase reporter plasmid and 5 ng of pRL Renilla luciferase control vector) and expression plasmid (empty plasmid, one or multiple plasmids depending on the experiment) by calcium phosphate precipitation. Cells were infected with SeV (100 HA/ml), HSV-1 for 16 h, transfected with Poly [I:C] for 16 h or directly harvested 30-36 h post transfection. Whole cell lysates were used to determine the activity of firefly luciferase and renilla luciferase by a microplate reader (FLUOstar Omega)."}, "cGAS [2]": {"system": "cGAS", "assay": "In vitro deamidation assay (cGAS)", "assay_type": "biochemical, mouse", "conditions": "purified proteins", "method": "The in vitro deamidation assay was performed as previously described. Briefly, 5 μg of purified MBP-mcGAS or MBP-mcGAS-DDEE mutant on amylose resin was incubated with 0.5 gig of purified FLAG-UL37 or FLAG-UL37C819S at 30° C. for 45 min in deamidation buffer (50 mM Tris-HCl [pH 7.5], 100 mM NaCl, and 5 mM MgCl2). Then the reaction was stopped by adding rehydration buffer and the eluted proteins were analyzed by two-dimensional gel electrophoresis."}, "cGAS [3]": {"system": "cGAS", "assay": "Real-time PCR in THP-1 cells stably expressing UL37, transfected with HT-DNA", "assay_type": "cell-based, human", "conditions": "THP-1 stable cell lines", "method": "THP-1 or L929 cells were infected with HSV-1 (MOI=5) or stimulated with HT-DNA (2 μg/ml) or cGAMP (2 μg/ml) for 6 h unless specifically indicated otherwise. Cells were washed with cold PBS, and total RNA was extracted by using TRIzol Reagent (Invitrogen). RNA was digested with DNase I (New England Biolabs) to remove genomic DNA. One microgram of total RNA was used for reverse transcription with PrimeScript Reverse Transcriptase (Clontech) according to the manufacturer's instruction. Approximately 0.5% of the cDNA was used as template in each quantitative real-time PCR (qRT-PCR) reaction with SYBR master mix (Applied biosystems).\nLentivirus production was carried out in 293T cells as described previously. THP-1 or L929 cells were infected with lentivirus containing UL37 or UL37 C819S mutant. After 36 h, THP-1 cells were selected with puromycin at 1 μg/ml and L929 cells were selected with puromycin at 5 μg/ml."}, "cGAS [4]": {"system": "cGAS", "assay": "cGAMP reporter assay (THP1-Lucia)", "assay_type": "cell-based, human", "conditions": "THP-1 cells transfected with HT-DNA (HT-DNA alone approximately 60 ng)", "method": "THP-1 Cells were transfected with HT-DNA (2 μg/ml) or infected with HSV-1 virus for 6 h. Cell extracts were prepared by heating at 95° C. for 5 min to denature most proteins, and then the precipitated proteins were removed by centrifugation. The supernatant containing cGAMP was delivered to digitonin-permeabilized (2.5 μg/ml for 30 min) THP1-Lucia cells at 37° C. for 30 min. The cells were cultured for another 20 h before Lucia reporter activity was measured according to the manufacturer's instruction (InvivoGen). Pure cGAMP was diluted and used as standard for the assay."}, "IFN-β and RANTES": {"system": "IFN-β and RANTES", "assay": "Cytokine ELISA, HEK293 RIG-I stable cell lines infected with HSV-1", "assay_type": "cell-based, human", "conditions": "HSV-1-infected cells, supernatant at 16 hpi", "method": "Commercial cytokine ELISA kits used in this study include: human IFN-β (PBL Assay Science) and human RANTES (R&D Systems). Cytokine levels in the supernatant from cultured cells were assessed according to manufacturer's instruction. Absorbance was determined with FLUOstar Omega (BMG Labtech.)."}, "HSV-1": {"system": "HSV-1", "assay": "HSV-1 plaque assay in HEK293 cells stably expressing RIG-I wild-type or mutants", "assay_type": "cell-based", "conditions": "HEK293 stable cells, HSV-1 MOI=0.5"}, "RIG-I [5]": {"system": "RIG-I", "assay": "Two-dimensional gel electrophoresis of RIG-I deamidation in cells", "assay_type": "cell-based, human", "conditions": "2-DGE and immunoblotting", "method": "Cells (1×10^6) were lysed in 150 μl rehydration buffer (8 M Urea, 2% CHAPS, 0.5% IPG Buffer, 0.002% bromophenol blue) by three pulses of sonication and whole cell lysates were centrifuged at 20,000 g for 15 min. Supernatants were loaded to IEF strips for focusing with a program comprising: 20 V, 10 h (rehydration); 100 V, 1 h; 500 V, 1 h; 1000 V, 1 h; 2000 V, 1 h; 4000 V, 1 h; 8000 V, 4 h. After IEF, strips were incubated with SDS equilibration buffer (50 mM Tris-HCl [pH8.8], 6 M urea, 30% glycerol, 2% SDS, 0.001% Bromophenol Blue) containing 10 mg/ml DTT for 15 min and then SDS equilibration buffer containing 2-iodoacetamide for 15 min. Strips were washed with SDS-PAGE buffer, resolved by SDS-PAGE, and analyzed by immunoblotting."}, "RIG-I [6]": {"system": "RIG-I", "assay": "Gel filtration of purified RIG-I (oligomerization)", "assay_type": "cell-based, human", "conditions": "cells infected with HSV-1, 4 h", "method": "Virus-infected HEK293T/Flag-RIG-I or HeLa/Flag-RIG-I stable cells were harvested and lysed in cold Triton X-100 buffer (20 mM Tris, pH 7.5, 150 mM NaCl, 1.5 mM MgCl2, 20 mM β-glycerophosphate, 1 mM sodium orthovanadate, 10% glycerol, 0.5 mM EGTA, 0.5% Triton X-100, 1 mM PMSF and 10 μg/ml leupeptin). Centrifuged supernatant was filtered and subjected to incubation with anti-Flag-conjugated agarose beads for 2 h at 4° C. Beads were then extensively washed and proteins were eluted with 3× Flag peptide at 0.2 mg/ml.\nGel filtration with superose 6 was performed as described previously. Briefly, eluted proteins (200-300 μl) were loaded to superose 6 column and subjected to gel filtration analysis with Buffer B (20 mM Tris-HCl, pH 7.6, 150 mM NaCl, 1 mM EDTA, 0.5 mM EGTA, 0.5% Triton X-100, 20 mM NaF, 20 mM β-glycerophosphate, 1 mM Na3VO4, 2.5 mM metabisulphite [sodium salt], 5 mM benzamidine). Elution was collected in 0.5 ml fractions and aliquots of fractions were analyzed by immunoblotting."}},
  "data": [
    {"molecule": "UL37C819S", "values": [
      {"measurement": "effect of added UL37 on cGAS-mediated cGAMP production", "setting": "cGAS [1]", "value": "less, albeit still significant, inhibition of cGAMP production"},
      {"measurement": "blockade of SeV-induced PRDIII promoter activation", "setting": "PRDIII promoter", "value": "greatly impaired blockade of PRDIII induction by SeV"},
      {"measurement": "cGAS deamidation in vitro (2DGE shift)", "setting": "cGAS [2]", "value": "failed to do so"},
      {"measurement": "effect on expression of IFNB1, ISG56 and CXCL10 induced by HT-DNA", "setting": "cGAS [3]", "value": "no detectable effect on IFNB1 and ISG56 expression"},
      {"measurement": "intracellular cGAMP", "setting": "cGAS [4]", "value": "~85 ng per one million THP-1 cells"}
    ]},
    {"molecule": "B1", "values": [
      {"measurement": "IFN-β and RANTES in supernatant", "setting": "IFN-β and RANTES", "value": "Increased IFN-β and RANTES expression"},
      {"measurement": "reduction of HSV-1 replication / titer", "setting": "HSV-1", "value": "75-90%"},
      {"measurement": "charge shift of RIG-I (deamidation) upon UL37 expression or recombinant HSV-1 infection", "setting": "RIG-I [5]", "value": "deamidation-resistant"},
      {"measurement": "size of RIG-I elution fractions (oligomerization)", "setting": "RIG-I [6]", "value": "440-670 kDa"}
    ]}
  ]
}
